Assay: soluble on expression in E. coli; label from the status in PepcDB or PDB records

Row | Sequence | soluble on expression in E. coli
1 | MCENTLAQQKTEEFAPVSDLRAEAYGSTVFLHWTPPYDNPMIPLSESFESGIPAIWKTIDADGDGYNWMHLTNFTGQSGLCVSSASYIGGVGALTPDNYLITPELKLPTDALVEIIYWVCTQDLTAPSEHYAVYSSSTGNNAADFVNLLYEETLTAKRIQSPELIRGNRTQGVWYQRKVVLPNDTKYVAFRHFNSTDNFWLNLDEVSILYTPLPRRAPCPHPGGYTYSVFRDGQKIASGLSALAYIDTDVPYGTQDYCVQVNYLQGDSYKVCKNIVVANSANIYGADKPFALTVVGKTIVASAFKGEITLYDIRGRLIASGCDTLRYKAENGFYLIKIQVNGTVYTEKIQIQ | not soluble
2 | MCGITGWVDWKEDLSNQHVILKKMANRIQHRGPDAEGFWFSPRAAFAHRRLIVIDPEGGAQPKTFRAGDYTYALTYNGEIYNFRELREQLQKCGHTFETHSDTEVLLHAYLEWKEDCVQHLNGIFAFALWDDQKQRLFLARDHLGVKPLFYTERNDSIIFGSEIKALLAHPSVPAEIDADGINEIFGLGLFRTPGCGVFKHIEEVRAGHSITFTRDKKVVTKYWNLESKVHTDSIEDTSSHILSILQDTVKRQLIADVPLVCMLSGGLDSSGITALAGKEFAAENKTLHTYSVDFVNSAKDFELTFARTGLDAPWVKRVSEHVGTSHHDIIVNAEELANHLFVPLRAKDLPSAGEMETSLYLLFCEMKKDATVALSGESADEVFGGYPWFHQEELLYVDKFPWLTNWKNTSPLLLHEISNQCNLENYIDTRFQEAILEVPTLEGESKKSAKQRQMFYLFLTRFLPFLLDRKDRMSMAVGFEVRVPFCDYRLVEYLWNVPFNIKSIDNIEKGILRRALKPALPDDVRNRRKSAYPTSQDPQYLQTIRHLSLDMCSNKNNPIFSLINHSTLLAIADGSNKEINNFEARSAMEYMLQVNEWLKTYHIHIA | not soluble
3 | MCGRIAQKSAPEDYVEILWPNARLIFDDVAGPRYNIPPGTRPLTMHRLVDQAEALARLPWGYKPHGSRFFMVNAKLETIERHGWPWKLMIGVGRILVPADGWYEWRALDSGPKPAKQSYYIHGDAPLLFAGLSAWRRGAELDEAHGFAIVTNDALGGMVDVHDRRPVALPPELAREWVDPATPVARAKEILRAGLPETAFSWYPVRQEVGSSKYQLPDAVDPLLEHHHHHH | not soluble
4 | MCIAIPGKMTAIVDENTATIDMGGICRDVNMALMGGAEESMIGKHFLVHVGYAISEISEEESEETMRLLKIMAGLEEIDSFENESQ | not soluble
5 | MCIAIPGRIERIDYPIAIVDFKGLKKEVRIDLLENPQIGDYVLVHVGMAIQKVDEEEAKKTWELLERVADETGNQAF | not soluble
6 | MCMMSKVVSKMKSFLGFDEFEDEDEVMEEEEVMEEEESFAPVLSSKKNGKVVNIHTANTAKLMITKPLVYDDATEICTALKNRKIVVINTTSLELRTAQRLIDFVGGACYALCGELQEVEKGVFIVSPSNVEVSNELKSELSNKGMFNWASKLEHHHHHH | not soluble
7 | MCNTPTYCDLGKAAKDVFNKGYGFGMVKIDLKTKSCSGVEFSTSGHAYTDTGKASGNLETKYKVCNYGLTFTQKWNTDNTLGTEISWENKLAEGLKLTLDTIFVPNTGKKSGKLKASYKRDCFSVGSNVDIDFSGPTIYGWAVLAFEGWLAGYQMSFDTAKSKLSQNNFALGYKAADFQLHTHVNDGTEFGGSIYQKVNEKIETSINLAWTAGSNNTRFGIAAKYMLDCRTSLSAKVNNASLIGLGYTQTLRPGVKLTLSALIDGKNFSAGGHKVGLGFELEALEHHHHHH | soluble
8 | MCVRLENENFKAELSESGAELTSLKSKNTDNEYIWTANSSYWGRHAPILFPIVGKVKDNKYRIADKVYNLSQHGFARDMEFEVEDNASDRAVFKLVWNDETLEKYPYKFELRVIYVLKDSTVDVTYNVKNVDDKDIFFSIGAHPGFNCPVIGKQSENDELQFEDYYIEFEKRETTGVVKLNSSNLLSRNTSPFLYASNILNLSEKLFKQGALILKDLDSTSISLKNDKNTTSVTVSFEGFPYVGLWSKPEGAPFVCIEPWFGHADYEDFNGDFREKEDGLKLEVGKEFECTYSITIGELEHHHHHH | soluble
9 | MDAEPSTPKQTEQEPSALSSADQVTNEPMESIIRPSILDSNSKMGNKQEDEDRLKKDSGPSTSNQAEQDPSKSADQFVTLSRPTTLGFSPTFESLQNNQEDTKQSTRLLNEDQDRDTLLKKHVDSLYALSERCIIFAGVLNQFLPTEKRRSKTDFLTENMLAALLSELITQIEVSDLRAKANPAVGKQEGDRCKELVSEKSCIEESLRNFREFAKEDSKTDTSSKLDPPNLNTLLYQLEGIEKIMNSIQTTLEANNFNDSENGSNEVTPNKSQLEGDSLKEVPSEESQIVDSAHDGDSRKEGESEVSEMDNVALDKDLPEETETDKTLVDEIPLEDLDKEPLDENPLEGSPGPAQNMTERNIRKRPNSRHDNVSPSKLQKV | soluble
10 | MDCLNIEELTRIIIKEIRDYEEKEGVKSRRKIEVPINVSARHVHLSEEHMEALFGKGYTLTPIRDLMQPGEFAAKETVIIVGPKGILPSVRILGPARKRTQVEVSKTDCYTLGIEAQVRDSGNHEGTPGCIIVGPMGAVKLEEGVIVAMRHVHMPKNLAEKIGIKDKNLLKVEVGEERKLIFENVLARVSEKFVLEMHVDTDEANAAGIKNQAKGYILL | not soluble
11 | MDCVMKGLNKITCCLLAALLMPCAGHAENEQYGANFNNADIRQFVEIVGQHLGKTILIDPSVQGTISVRSNDTFSQQEYYQFFLSILDLYGYSVITLDNGFLKVVRSANVKTSPGMIADSSRPGVGDELVTRIVPLENVPARDLAPLLRQMMDAGSVGNVVHYEPSNVLILTGRASTINKLIEVIKRVDVIGTEKQQIIHLEYASAEDLAEILNQLISESHGKSQMPALLSAKIVADKRTNSLIISGPEKARQRITSLLKSLDVEESEEGNTRVYYLKYAKATNLVEVLTGVSEKLKDEKGNARKPSSSGAMDNVAITADEQTNSLVITADQSVQEKLATVIARLDIRRAQVLVEAIIVEVQDGNGLNLGVQWANKNVGAQQFTNTGLPIFNAAQGVADYKKNGGITSANPAWDMFSAYNGMAAGFFNGDWGVLLTALASNNKNDILATPSIVTLDNKLASFNVGQDVPVLSGSQTTSGDNVFNTVERKTVGTKLKVTPQVNEGDAVLLEIEQEVSSVDSSSNSTLGPTFNTRTIQNAVLVKTGETVVLGGLLDDFSKEQVSKVPLLGDIPLVGQLFRYTSTERAKRNLMVFIRPTIIRDDDVYRSLSKEKYTRYRQEQQQRIDGKSKALVGSEDLPVLDENTFNSHAPAPSSRLEHHHHHH | not soluble
12 | MDDLIELEISKTQCIRIYLPCKKEDLDFFDCVTIEYLKEQTEYILYYKDLSGAAIISLKELLEKALNFKLQIENEYKDKGIGYYHSIYTNNIYANKLQTAGSQDLIDPTKDFLVWSTLGPTSIGTFIYNDQDKIYIEISPLYEWFNHIFDDILEEYNEVKDEDASFDDFLNNYKPIDIVAIDRKVAEKWLEFCCEMIEILKANDKKQLK | not soluble
13 | MDDQGCPRCKTTKYRNPSLKLMVNVCGHTLCESCVDLLFVRGAGNCPECGTPLRKSNFRVQLFEDPTVDKEVEIRKKVLKIYNKREEDFPSLREYNDFLEEVEEIVFNLTNNVDLDNTKKKMEIYQKENKDVIQKNKLKLTREQEELEEALEVERQENEQRRLFIQKEEQLQQILKRKNKQAFLDELESSDLPVALLLAQHKDRSTQLEMQLEKPKPVKPVTFSTGIKMGQHISLAPIHKLEEALYEYQPLQIETYGPHVPELEMLGRLGYLNHVRAASPQDLAGGYTSSLACHRALQDAFSGLFWQPS | soluble
14 | MDDYKRILITKILKNEVTEALGCTEVGLIGYAVSLCNISDPFSIEKIELTLNNGSFKNAYAVGVPNTKKYGILPAVVGGLLGDHKNKLLVFNGIKYSQKLEDFIKERLKIRVINSPLYCGVKIKDNSGNTFESLIKDNHLNVVIPKINNKLISEINGSEKEEYKNLELLDFLEYIDEIPEEIIQLVEKTIYTNNNLIKGDFLNFGNDCLSNMVNKTTSACNTRMIGENMPAMSVAKSGNMGIMATLPIIAYDYSNEQNQEKLIKSILLSVLVTIYATYKSSYLSSMCGCVSKGGMGAVIGLCYYKNGKNIKKLDSAARTFTANLPGIICDGGKVGCALKLASGCFAAYSSLFVDISYENGIVGKNFKECVENISEISKIMGDLDSDIVKIMSKKEI | not soluble
15 | MDEEERTSSRGWMREFKYPSNLRDITEEARISLSSVAHFDELLHESSELAWRTNMSPPHRALFTFSKKTDISYVMLFLDYSRDESYCPQEVRIDLGDGTNDWWLKMYRRVDQPKGWVKIPIHDAFGNPLRVMSLQMTIMKNHEKGRDCVVRHFRVLGPFRSRYDSMNRMILGPSAVLEARPGTEPIKDAIMNHYQSMR | not soluble
16 | MDEIEKNNGEIIIYRTEDGRTQLEVRLENENVWLSQQQMSELFQTSRTNIVEHIKHIFEEGELEENSTCQIFRQVRIEGTRKVERSIPFYNLDMIISLGYRVKSRVATHFRRWATERLKEYLIKGFAMDDQRLKEIGGGGYWYELLNRIRDIRSSEKVLYRQVLDLYATSVDYDPKADESIRFFKIVQNKLHYAAHGHTAAEVIFERADAEKPFMGLATFPGEQPRKEDVLIAKNYLNEKELKILNNLVSGYFDFAEIQAIKRSPMYMSDYIHHLDLILSTTGEQVLQNAGTISHEQAKQKALGEYRKYHVKTLSPVEEAYFDSIKKLTAETKKKKKK | not soluble
17 | MDEYQQTIRALSDRIVVAQTPIRILDAVKWDDTVRKNFLAAKGKALPAVDRAYYENRPLGFDSVALKQEFQNIERDVTRQLGQFNPVGQIMRRMCREYRMVVRMLEARGTPDFGLISQELYGAASDAFHAGDPTLADLGLMLSDYLNNIAGRGDLKDEPKILTAKDAVSLLQSRLNRVFGEAEETIRVFESDGIVADAAAGADYIKIRTDAMFNERDVRALEVHEGLVHVGTTLNGQNQPICTFLSKGPPSSTVTQEGLAILMEVIAFASYPSRLRKLTNRTRAIHMAEQGADFLQVFEFYREQGFGMSESYGNASRVFRGSVPDGLPFTKDLSYLKGFIMVYNYIQLAVRKGKLEQVPLLFCGKTTLEDMRTLRQLVDEGLVVAPKYLPEQFRDMNALSAWMCFSNFLNHLSLDRIEADYSNILLEHHHHHH | soluble
18 | MDFKDILRQLSERIEKLRDNLQTEEATKNALIMPFIQAMGYDVFNPLEVIPEFTCDIGTKKGEKIDYAIMRDNEPIILIECKHWRDTLTLADNQLLRYFHVSSAKFGMLTNGIIYRFYTDLDQANKMDEKPFLEVNMLDLRDNQIEELKQFHKSYFDVDKILSTASELKYMKELKDLILAEMNEPSEQFVRMLAKQVYDGIITAKIFEQFKDLTQKSFKSVINDLITARFKTVMDKSKEVAASEEQSQEQDDSNEPLVVTTEAEMEAYMIVKGILRKYINIDRIASRDTQSYFSVLLDDNNRKPICRFYFNTANKYLATFEEGKKEVKTLLNSLDDLFMHEKSIAKSLALYVDTEESALIVKSKE | soluble
19 | MDFLERLKSLWPDNAKPADFYNKIDMSASGFSRVWKDGAIPTADYLIKIQEVTGCDLNWLLTGQGSPYMNKGQAVEVRTHTDGTATDTLGNP | not soluble
20 | MDFTIPLQLQSNTPIYLQIYEYIKAEIIQGTISVGTRLPSHRNLASQLNISRITVESAYQQLLAEGYAESKPKRGIFVANFDIDIIPNKKRNAAKKTNNLIEEKFEYDCSQGLIDQNAFPITNWKRALQESILIYENALFAKEDPQGEFALREHISTYLYHSRGVHSSPDQIVIGAGTQPLLWLLLQLLGPTKEYGIENPGFHRIHAIIKSCDRQIHPIPLDEKGIDISSLYNTNSNVAYVTPSHQFPLGIIMPLSRRLELLKWANDCNGYIIEDDYDGEFRYAGKPIPSLQSLDSNERVIYMGTFSKSFLPSLRMGYVVLPPHLLKTYQELHGIFKQTVATIQQLAFANFIQSGNWERHLNRSRTLYKRKHHTLVKSIMKEMGANVQILGEQSGLHIVLCVNNSMNENELIESAKKQSVKLYPLSPYDFVNDLRKESYVLLGFGSIPENKIETLATLLKDAWFPSCKETC | not soluble

— the DeepSol protein solubility set
